Patent US20250171549A1
Several values for one entry are separate records, joined by “and”; a condition that tells them apart may be missing. Identical values can stand only once.

Columns and labels:
[1] = target: human CCR8 (human) (UniProt P51685); test: flow cytometry, primary human Tregs (PBMC, CD4+CD25+CD127- gate)
[2] = target: cynomolgus monkey CCR8 (comprising threonine at position four) (cynomolgus monkey); test: flow cytometry, primary cynomolgus Tregs (PBMC, CD4+CD25+CD127- gate)
[3] = target: P_13-24 construct (truncated N-terminal peptide of human CCR8 fused to V5 tag, chicken albumin, FLAG tag, BAP and H3G) (human); test: flow cytometry, construct on streptavidin beads
[4] = target: P_1-12 construct (truncated N-terminal peptide of human CCR8 fused to V5 tag, chicken albumin, FLAG tag, BAP and H3G) (human); test: flow cytometry, construct on streptavidin beads
[5] = target: T1, P_25-35 construct (truncated N-terminal peptide of human CCR8 fused to V5 tag, chicken albumin, FLAG tag, BAP and H3G) (human); test: flow cytometry, construct on streptavidin beads
T1 sequence (chain, biotinylated in vivo at BAP): CDAELIQTNGK

[6] = target: P_19-30 construct (truncated N-terminal peptide of human CCR8 fused to V5 tag, chicken albumin, FLAG tag, BAP and H3G) (human); test: flow cytometry, construct on streptavidin beads
[7] = target: P_1-35 construct (full-length N-terminal peptide of human CCR8 fused to V5 tag, chicken albumin, FLAG tag, BAP and H3G) (human); test: flow cytometry, construct on streptavidin beads
P_1-35 construct (full-length N-terminal peptide of human CCR8 fused to V5 tag, chicken albumin, FLAG tag, BAP and H3G) (human), sequence (chain, as listed by the source): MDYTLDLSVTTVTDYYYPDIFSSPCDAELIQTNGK

[8] = target: P_7-18 construct (truncated N-terminal peptide of human CCR8 fused to V5 tag, chicken albumin, FLAG tag, BAP and H3G) (human); test: flow cytometry, construct on streptavidin beads
[9] = target: rat CCR8 (rat); test: flow cytometry, HEK293T transfectants, 5 ug/mL
rat CCR8 (rat), sequence (P56484 other isoform, or with tags, fused parts or gaps): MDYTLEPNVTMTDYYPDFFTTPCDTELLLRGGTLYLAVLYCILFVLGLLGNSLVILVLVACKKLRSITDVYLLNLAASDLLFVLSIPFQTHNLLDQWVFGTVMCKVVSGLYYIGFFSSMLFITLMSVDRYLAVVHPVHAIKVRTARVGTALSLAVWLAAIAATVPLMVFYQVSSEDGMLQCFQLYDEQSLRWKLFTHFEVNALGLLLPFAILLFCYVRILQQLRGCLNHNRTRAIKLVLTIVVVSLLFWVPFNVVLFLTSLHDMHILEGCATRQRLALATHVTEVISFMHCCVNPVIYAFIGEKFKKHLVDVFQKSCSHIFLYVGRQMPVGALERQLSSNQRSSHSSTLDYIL

[10] = target: murine CCR8 (murine) (UniProt P56484); test: flow cytometry, HEK293T transfectants, 5 ug/mL
murine CCR8 (murine), sequence (P56484 whole entry): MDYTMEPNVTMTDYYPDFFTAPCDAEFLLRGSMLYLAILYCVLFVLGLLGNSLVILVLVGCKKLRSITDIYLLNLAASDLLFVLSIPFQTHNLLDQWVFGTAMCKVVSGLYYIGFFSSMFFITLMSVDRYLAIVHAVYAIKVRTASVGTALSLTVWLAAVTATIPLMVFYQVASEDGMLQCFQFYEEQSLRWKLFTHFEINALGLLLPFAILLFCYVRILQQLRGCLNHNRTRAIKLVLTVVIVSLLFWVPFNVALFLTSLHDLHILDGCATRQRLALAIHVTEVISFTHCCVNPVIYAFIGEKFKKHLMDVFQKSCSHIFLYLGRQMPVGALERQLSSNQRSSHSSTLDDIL

[11] = target: cynomolgus monkey CCR8 (comprising threonine at position four) (cynomolgus monkey); test: flow cytometry, primary cynomolgus Tregs, purified antibody 20 ug/ml
[12] = target: human CCR8 with an A27G point mutation (human) (UniProt P51685); test: flow cytometry, HEK293T transfectants, 5 ug/mL
human CCR8 with an A27G point mutation (human), sequence (P51685 whole entry A27G): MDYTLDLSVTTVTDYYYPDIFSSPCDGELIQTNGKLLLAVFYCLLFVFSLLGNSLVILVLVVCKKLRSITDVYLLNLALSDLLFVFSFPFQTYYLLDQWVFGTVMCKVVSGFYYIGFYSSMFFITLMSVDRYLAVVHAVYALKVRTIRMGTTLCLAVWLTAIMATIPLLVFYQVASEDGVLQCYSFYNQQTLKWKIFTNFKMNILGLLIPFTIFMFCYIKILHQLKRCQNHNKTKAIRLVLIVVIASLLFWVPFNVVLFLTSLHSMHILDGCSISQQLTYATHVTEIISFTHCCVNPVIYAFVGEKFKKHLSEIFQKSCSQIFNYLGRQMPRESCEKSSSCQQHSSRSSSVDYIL

[13] = target: human CCR8 (human) (UniProt P51685); test: flow cytometry, HuT78 cells, 5 ug/mL

cynomolgus monkey CCR8 (comprising threonine at position four) (cynomolgus monkey), sequence (O97665 other isoform, or with tags, fused parts or gaps): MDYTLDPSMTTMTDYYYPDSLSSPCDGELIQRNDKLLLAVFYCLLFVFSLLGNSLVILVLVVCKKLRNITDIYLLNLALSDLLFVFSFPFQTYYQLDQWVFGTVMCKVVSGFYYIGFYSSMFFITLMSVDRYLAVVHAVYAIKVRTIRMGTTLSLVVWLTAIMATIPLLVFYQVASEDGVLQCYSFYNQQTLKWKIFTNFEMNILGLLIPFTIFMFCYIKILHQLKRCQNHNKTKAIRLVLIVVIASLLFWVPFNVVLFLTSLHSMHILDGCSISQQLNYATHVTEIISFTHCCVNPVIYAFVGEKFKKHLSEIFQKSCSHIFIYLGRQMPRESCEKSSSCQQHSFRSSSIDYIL
human CCR8 (human), sequence (P51685 whole entry): as the sequence (P51685 whole entry A27G) above, with G27A counted along it
anti-human CCR8 antibody clone 433H (BD 747578), sequence (VH): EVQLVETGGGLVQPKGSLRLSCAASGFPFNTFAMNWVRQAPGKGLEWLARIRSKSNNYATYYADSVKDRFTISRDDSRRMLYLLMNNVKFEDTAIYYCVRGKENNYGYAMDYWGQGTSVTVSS
anti-human CCR8 antibody clone 433H (BD 747578), sequence (VL): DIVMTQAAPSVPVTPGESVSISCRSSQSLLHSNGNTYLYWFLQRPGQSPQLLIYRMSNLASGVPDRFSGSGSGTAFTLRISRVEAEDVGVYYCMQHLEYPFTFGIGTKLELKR

Substance | CCR8+CD127-CD25+CD4, % positive [1] | CCR8+CD127-CD25+CD4, % positive [2] | Median Fluorescence of Sample/Median Fluorescence of Negative Control [3] | Median Fluorescence of Sample/Median Fluorescence of Negative Control [4] | Median Fluorescence of Sample/Median Fluorescence of Negative Control [5] | Median Fluorescence of Sample/Median Fluorescence of Negative Control [6] | Median Fluorescence of Sample/Median Fluorescence of Negative Control [7] | Median Fluorescence of Sample/Median Fluorescence of Negative Control [8] | binding by FACS (read-out not named) [9] | binding by FACS (read-out not named) [10] | CCR8+CD127-CD25+CD4, % positive [11] | binding by FACS (read-out not named) [12] | binding by FACS (read-out not named) [13]
Hu IgG2b (antibody) | 1.5% and 0% and 1.9% | 11.9% and 11.3% | – | – | – | – | – | – | – | – | – | – | –
Negative control (Table 6) | – | – | 1 | 1 | 1.1 | 1 | 1 | 1 | – | – | – | – | –
anti-FLAG antibody (clone M2, Sigma F3165/F1804) | – | – | 628 | 596 | 582 | 590 | 522 | 589 | – | – | – | – | –
anti-human CCR8 antibody clone L263G8 (BioLegend, 360602) | – | – | 285 | 0.9 | 0.9 | 0.9 | 751 | 0.9 | – | – | – | 41400 | 4500

Second part, the substance after the results:

CCR8+CD127-CD25+CD4, % positive [1] | CCR8+CD127-CD25+CD4, % positive [2] | Median Fluorescence of Sample/Median Fluorescence of Negative Control [3] | Median Fluorescence of Sample/Median Fluorescence of Negative Control [4] | Median Fluorescence of Sample/Median Fluorescence of Negative Control [5] | Median Fluorescence of Sample/Median Fluorescence of Negative Control [6] | Median Fluorescence of Sample/Median Fluorescence of Negative Control [7] | Median Fluorescence of Sample/Median Fluorescence of Negative Control [8] | binding by FACS (read-out not named) [9] | binding by FACS (read-out not named) [10] | CCR8+CD127-CD25+CD4, % positive [11] | binding by FACS (read-out not named) [12] | binding by FACS (read-out not named) [13] | Substance
0% and 0.1% | 0.3% and 0.8% | – | – | – | – | – | – | – | – | – | – | – | Cyno IgG2a (antibody)
– | – | – | – | – | – | – | – | 1590 | 56800 | – | – | – | SA214G2 (antibody)
– | – | 1300 | 1090 | 1090 | 1020 | 953 | 1090 | – | – | – | – | – | anti-V5 antibody (clone SV5-Pk1; AbD Serotec, MCA 1360)
– | – | 300 | 0.9 | 0.9 | 0.9 | 290 | 0.9 | – | – | 66.2% and 63.7% | – | – | anti-human CCR8 antibody clone 433H (BD 747578)
